± gives the uncertainty stated by the source.
test: amyloid nucleation score (Sup35N fusion, yeast selection) (log enrichment); library NNK2; higher = more nucleation; inactive = no reads after selection
Procedure, shortened: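 The nucleation score, computed with DiMSum, is the log enrichment of output over input reads, centred on the mode score of non-aggregating sequences. Sequences with under 100 input reads were dropped. Reads were generated by Illumina sequencing of plasmid inserts from psi-negative yeast with Sup35N fused to peptides of 20 random codons, induced with 100 μM copper sulfate for 24 hours and grown 7 days at 30°C on medium lacking adenine and uracil.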

Point of comparison: SRIIMSFTSGLCDNHSKLKC, amyloid nucleation score 1.68 ± 0.19. Against it:
- LILRSVSNYAITIMFAFDTR — higher, 4.39 ± 0.096
- CMMLAPLCLSLL — lower, -0.018 ± 1.1
- SMQFFFRS — higher, 6.51 ± 0.072
- SIPIIETGVWYVNNRVLMN — lower, -1.43 ± 0.54
- LGSYVACPRDTKDYQNNSMC — lower, -0.877 ± 0.48
- GVRRRRIRRWLNVSGRYMCE — higher, 2.38 ± 0.23
- TSKWQRNLFGDGSLKEFTGE — lower, -0.712 ± 1.1
- MAGLTSWCGPHHTVWLTWNG — lower, 0.939 ± 0.3
- SFFFMKSWSGRPPIQLGV — lower, -0.113 ± 0.65
- RLPARLGSS — lower, 0.23 ± 0.25
- PNSPRMNESLSFIFPGDVSG — lower, -0.474 ± 1
- RKCSLVAEWTGLLLNSFVHN — within error, 1.19 ± 0.45
- ISCGVSLPIANCTMTHIARV — lower, -0.23 ± 0.49
- ASAYSPASRRSTDMADALV — lower, 0.496 ± 0.31
- FRDQGIFIHLWS — lower, 0.781 ± 0.44
- VKLIETSLLSFLIE — lower, -0.33 ± 0.76
- GHVDCWYGRVTALGQAKYE — lower, 0.344 ± 0.26
- DFSIQWCTSSINYVLYFAI — lower, -1.89 ± 0.44
- CIEDRVCLDS — higher, 8.276 ± 0.041
- QRPAGYHQTLSVARQRLRPD — lower, -0.73 ± 0.76
- DLYMNEASTALGLGRGFLWG — lower, -0.553 ± 1.1
- SPWGPLLAFTSKTNPIQWMT — lower, -0.196 ± 0.46
- TNCSPVVPSCD — lower, 0.224 ± 0.57
- YYRYRHLMHLIKWME — lower, 0.216 ± 0.53
- WIKLAFDWKQF — lower, -1.18 ± 0.55
- IWLTVVESRFVTGVVGECYW — lower, 0.255 ± 0.45
- MMSEVLKDVSCHFIPLGGQV — lower, -0.694 ± 0.48
- YRFVLVRNKVSYH — lower, -0.827 ± 0.33
- PFACYGFCRM — lower, -1.29 ± 0.76
- GTYFNLYAGVLSVRQWPPHI — higher, 4.42 ± 0.061
- NNSYIRLS — lower, -0.883 ± 0.45
- ILDLWIVESKCFTSNMLHWV — lower, -0.424 ± 0.76
- LKWVTFEST — lower, -0.418 ± 1.1
- VVQQLIRKITVFSLRLVLNK — higher, 4.16 ± 0.073
- FRFFCHISMNLGTLWRLDCL — lower, -0.405 ± 0.44
- WFMSKAYVTSCALFSRVIHT — lower, 0.914 ± 0.43
- EFAELSSRQRFWHMFV — lower, 1.04 ± 0.34
- VGGRSGE — lower, -0.159 ± 0.26
- WYYRLLWYVLSQGRMRGNVQ — lower, -0.011 ± 0.41
- ARSDLNMRTFFVWASLFVLS — higher, 4.43 ± 0.056
- KSFSCVCPWFGH — higher, 10.32 ± 0.031
- VVMNLMEFMVRVSVLDNAEG — higher, 4.47 ± 0.075
- VMTYVEQVLGNVSVLIAIIT — lower, 0.015 ± 0.33
- ALNSPFMLQFLDWL — lower, 0.11 ± 0.76
- RRRHLGFGKSVEVE — lower, -0.549 ± 0.34
- MFGNTGLTSYYALTGTRWLY — lower, -0.487 ± 0.79
- NMYNLGFLSYYLKISGYLLD — lower, -1.85 ± 1
- AWSLDVTTM — lower, 0.051 ± 0.27
- FLRILFFGLGVMLQIRFFVH — lower, -0.569 ± 0.37
- NYRYLLFTSAVDRLQA — lower, -0.117 ± 0.21
- DNCLASVFINVKEFSHLCLW — lower, -0.451 ± 0.79
- YFNMSLTIPNI — lower, 0.566 ± 0.47
- GLSAKNH — lower, 0.279 ± 0.39
- FLTLATSTCGPACVW — higher, 6.99 ± 0.07
- WVTGPSRPD — lower, 0.387 ± 0.8
- FRQRDKRVTEMTPAERGGQ — higher, 2.79 ± 0.091
- KLFFTDGFLYGNPLLSDGLD — lower, -0.58 ± 0.39
- LSLFVQMMSVGTILLYRMTL — lower, 0.715 ± 0.34
- WECYLFFCDIVGVGVHWRSS — lower, -0.824 ± 0.42
- RKLTIA — lower, -0.887 ± 0.42
- IIYYMTVCQDSIDRIVPFCN — within error, 2.01 ± 0.14
- PPIRVYNLSSTYPMDMSSQR — lower, -0.8 ± 0.27
- VFAYIHFVTLGGCLLGF — within error, 1.3 ± 0.47
- KSMKEFSKFVLMSAP — lower, 0.192 ± 0.46
- NISDFVKLVSYWVSVRCDLR — lower, -0.305 ± 1.1
- LYPRPPYSRWIIANHSNWGS — lower, 0.218 ± 0.8
- SISRVVTWNRLRVKACRWAG — lower, 0.601 ± 0.28
- YFSFTGPHLDVA — lower, -0.937 ± 0.34
- IVDISCI — lower, -0.541 ± 1
- NVYIKRIWVPFSP — lower, -0.173 ± 0.36
- RRSGGPGEDGGSYERQFTSR — lower, 0.95 ± 0.32
- TISLRGDMDSSCKGIEGSSL — lower, -0.316 ± 1.1
- KNDGEVMKSVFKDRHCCART — lower, -0.565 ± 0.48
- DLKRLAWMLILSIYNRSTIM — lower, -0.221 ± 1.1
- KSYMARMWYMVRLMLTCLDY — lower, 0.741 ± 0.47
- VLLLGVSVRHFKGLGVPTKR — higher, 5.06 ± 0.065
- WVLPSLKGCTAVSYIFVFLY — lower, 0.398 ± 0.27
- VIPYVIQSYWMGMN — lower, -1.56 ± 0.75
- MFDFCPIMTLF — lower, -0.771 ± 1.1
- HHFNCCTGNFYIYKLDDSLI — higher, 5.485 ± 0.048
- SHLPVWTSKNARSRCDP — lower, 0.602 ± 0.25

For GNNFIF, the amyloid nucleation score was “inactive”.
With HDYVLFISECHKLLGAS the amyloid nucleation score was “inactive”.
With ITVFILDRYFGICV the amyloid nucleation score was “inactive”.
In the case of AASNQMSQ, the amyloid nucleation score is reported as “inactive”.
